Measurements as given in the supplement of paper PMC9170038.

Tested on: MS2 coat protein
Experiment: apparent KD of MS2 coat protein; designed switch direction (-1 OFF switch, 1 ON switch): 1; higher = weaker reporter binding
In short: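 Transcription of designed RNA switches on Illumina chips was done by stalled E. coli RNA polymerase. SNAP-549-labelled MS2 coat protein was then titrated in doubling steps from 0.7 or 1.5 nM to 3 µM, with steps of 0.8–1.5 h at the lowest and 10–20 min at the highest concentration. The per-design median over clusters of curve-fitted normalised fluorescence is reported as apparent KD.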

[1] = input ligand: microRNA oligo, concentration not stated
[2] = Eterna round: R95, input ligand: microRNA oligo, concentration not stated
[3] = Eterna round: R95, input ligand: FMN 200 uM
[4] = Eterna round: R95, input ligand: none

| Sequence | apparent KD of MS2 coat protein (input ligand: FMN 200 uM) | apparent KD of MS2 coat protein [1] | apparent KD of MS2 coat protein (input ligand: none) | apparent KD of MS2 coat protein [2] | apparent KD of MS2 coat protein [3] | apparent KD of MS2 coat protein [4] |
| --- | --- | --- | --- | --- | --- | --- |
| UGAACCUUCACAGGAUAUCAUGCGAAAAUUGCGUGAGAAGGGUGGAUGUGGCGUUCAUAGUUGCACAUGAGGAUCACCCAUGUA [SameState NG1 #50] (Eterna round: R96, puzzle: Same State NG 1) | 257 nM | 212 nM | 134 nM |  |  |  |
| GAGUUACAUGAGGAUCACCCAUGUUGUUUUGGAUAAGGAUAUAUGGUAGGAAGAGGAAUGAUAGAAGGUAUUAGGG [JR_SS1_Sub063] (puzzle: Same State 1) |  |  |  | 25.3 nM |  |  |
| UGUUGUAUUACAGGAUAUCUAUUGUUUUGAUUUAGAGAAGGGUAUUCACAUGAGGAUCACCCAUGUAUAUACGAGGAAGUUGUG [JMF's solution 77] (Eterna round: R96, puzzle: Same State NG 1) | 64.1 nM | 40.3 nM | 50.6 nM |  |  |  |
| GGAGCCGGUACUGAGGAUAUUCGUAUUAAAACAUGAGGAUCACCCAUGUAGGCCAGAAGGCCUUGGGAGAAGGCAGAUCGGCUCC [Biseusra - 1] (puzzle: Same State 2) |  |  |  | 36 nM | 13.2 nM | 48.3 nM |
| AACAAUUUAUCUGAGGAUAUCAUGAAAUAAACAUGAGGAUCACCCAUGUGCAGGAAAACUGCAUAUGAGAAGGCAGAUAGAUUGA [salish99_ss2_r3_023] (puzzle: Same State 2) |  |  |  | 821 nM | 53.5 nM | 1890 nM |
| UGGCUGGUGCUAGGAUAUACAUGAGGAAUCCUCGUAGAAGGAGCACGACAUGAGGAUCACCCAUGUAGCCGUCCGUAGACGGCU [salish99_SSNG1_r04_007] (Eterna round: R96, puzzle: Same State NG 1) | 284 nM | 156 nM | 112 nM |  |  |  |
| UAGAACAAGCUUUUUGCCCGUCUUAGAUAACAUGAGGAUCACCCAUGUAAGGUGAAAGUUAGAGAGUGGAGGAAGAA [JR_SHM208A_Sub054] (puzzle: Sensor for hsa-mir-208a) |  |  |  | 217 nM | 86.4 nM | 146 nM |
| AUAAGUUUGAUGCUCGUCCCUCCGUACAGACAUGAGGAUCACCCAUGUAGUCGGGAAGUAGCCCGGCCAGUAUGGCC [Biraza] (puzzle: Sensor for hsa-mir-208a) |  |  |  | 12.6 nM | 15.9 nM | 15 nM |
| GGAAAGAGGUCAGGAUAUGAAUGGUUGGGACAUGAGGAUCACCCAUGUAAUAGAAGAAAUCUACAUUAGAAGGGACAAGGAAGG [AK SSNG2-V2-5.1] (Eterna round: R96, puzzle: Same State NG 2) | 129 nM | 116 nM | 212 nM |  |  |  |
| GGAAAGAGGUUAGGAUAUGCAUGGCUGGGACAUGAGGAUCACCCAUGUAAUAGAAGAAAUCUAGGGUAGAAGGGACAAGGAAGG [ssng2 v2 a] (Eterna round: R96, puzzle: Same State NG 2) | 507 nM | 278 nM | 644 nM |  |  |  |
| UUGAAGAAUUAAGGAUAUCGAGUCGUCUAAUUAAACAUGAGGAUCACCCAUGUGGGUUGCGGUAUCGAGAAGGUAAAUUACUAG [JL JR Sub099 mod 3] (Eterna round: R96, puzzle: Same State NG 2) | 25.2 nM | 22.8 nM | 37 nM |  |  |  |
| GGUAGGUUACUACCAACACAUGAGGAUCACCCAUGUUAUGGGAAGGAUAUGGUACCUAUUUGGUACCAGAAGGUCCAGUUAAUU [Fiskers NG3ss - 16] (Eterna round: R96, puzzle: Same State NG 3) | 77.6 nM | 206 nM | 449 nM |  |  |  |
| UCAAGCGAGAGGCUCGUCUUAUGUAAGGUACAUGAGGAUCACCCAUGUGAGGGACGAUUGAGUUAGAUGGAAUGGAG [JR_SHM208A_Sub033] (puzzle: Sensor for hsa-mir-208a) |  |  |  | 121 nM | 42.3 nM | 50.9 nM |
